Positions count from the first letter of the chain named. Blank lines part the entries; values can stand above or below the binder they belong to.
Tests used:
[1] = molecular target: T1, human thrombopoietin receptor (human c-Mpl) (human, UniProt P40238 26-635); assay: cell-based or functional assay
T1 sequence (looked up): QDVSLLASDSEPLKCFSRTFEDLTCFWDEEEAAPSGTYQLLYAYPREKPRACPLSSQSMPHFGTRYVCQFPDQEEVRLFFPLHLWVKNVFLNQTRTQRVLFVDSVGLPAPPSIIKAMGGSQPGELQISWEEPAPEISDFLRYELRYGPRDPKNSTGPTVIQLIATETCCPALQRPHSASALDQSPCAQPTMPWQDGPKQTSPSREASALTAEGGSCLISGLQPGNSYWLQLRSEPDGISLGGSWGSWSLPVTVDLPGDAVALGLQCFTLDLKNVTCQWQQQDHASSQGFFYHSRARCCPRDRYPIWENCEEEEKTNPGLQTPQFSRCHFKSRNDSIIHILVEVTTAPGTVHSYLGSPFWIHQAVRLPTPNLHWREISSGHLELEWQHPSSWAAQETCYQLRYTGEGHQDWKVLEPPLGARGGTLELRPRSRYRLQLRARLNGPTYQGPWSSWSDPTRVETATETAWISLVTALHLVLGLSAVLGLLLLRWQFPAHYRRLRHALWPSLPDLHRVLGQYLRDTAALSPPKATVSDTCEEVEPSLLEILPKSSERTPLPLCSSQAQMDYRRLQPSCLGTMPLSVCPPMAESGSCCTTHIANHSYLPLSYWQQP

[2] = molecular target: T1, human thrombopoietin receptor (human …); assay: flow cytometry on FM3A-hMpl cells, antibody at 1, 0.1, 0.01 ug/mL

B1: anti-human c-Mpl agonist antibody 7-10 (IgG1) (antibody, V domains shown)
VH: EVQLVESGGGLVQPGRSLRLSCAASGFTFDDYAMHWVRQAPGKGLEWVSGISWNSGSIGYADSVKGRFTISRDNAKNSLYLQMNSLRAEDTALYYCAKNLWFGEFRYWYFDLWGRGTLVTVSS
VL: AIQLTQSPSSLSASVGDRVTITCRASQGISSALAWYQQKPGKAPKLLIYDASSLESGVPSRFSGSGSGTDFTLTISSLQPEDFATYYCQQFNSYPLTFGGGTKVEIK
- UT7/TPO (Max), maximum activity relative to PEG-rHuMGDF [1]: > 90%

B3: anti-human c-Mpl agonist antibody 6-5-2 (IgG1) (antibody, V domains shown)
VH: EVQLVECGGGLVQPGRSLRLSCAASGFTFDDYAMHWVRQAPGKGLEWVSGISWNSGSIGYADSVKGRFTISRDNAKNSLYLQMNSLRAEDTALYYCAKPIWFGEWGNYYGMDVWGQGTTVTVSS
VL: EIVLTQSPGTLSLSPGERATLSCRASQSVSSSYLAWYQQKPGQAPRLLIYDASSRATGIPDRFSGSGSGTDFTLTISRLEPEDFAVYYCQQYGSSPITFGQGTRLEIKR
- UT7/TPO (Max), maximum activity relative to PEG-rHuMGDF [1]: > 50%

B4: anti-human c-Mpl agonist antibody 4-49 (IgG1) (antibody, V domains shown)
VH: EEQLVESGGGLVQPGRSLRLSCTASGFTFDDYAMYWVRQVPGKGLEWVSGISWNSGSIGYADSVKGRFTVSRDNAKNSLYLQMNSLRAEDTALYYCAKALWFGEFPHYYGMDVWGQGTTVTVSS
VL: AIQLTQSPSSLSASVGDRVTITCRASQGISSTLAWYQQKPGKAPKLLIYDASSLESGVPSRFSGSGSGTDFTLTISSLQPEDFATYYCQQFNSYPYTFGQGTKLEIKR
- UT7/TPO (Max), maximum activity relative to PEG-rHuMGDF [1]: > 80%

Results, then the binder that gave them:

- binding activity relative to 7-10G4344uhm [2]: ~0.1 fold of 7-10G4344uhm
- agonist activity relative to 7-10G4344uhm, UT-7/TPO cell proliferation assay [1]: ~0.1 fold of 7-10G4344uhm
B2: 7-10G4344uhm light chain mutant 7-10VL_Y94F (antibody, V domains shown)
VH: B1 VH
VL: B1 VL with Y94F

- UT7/TPO (Max), maximum activity relative to PEG-rHuMGDF [1]: > 80%
B5: anti-human c-Mpl agonist antibody 6-4-50 (IgG1) (antibody, V domains shown)
VH: EVQLVESGGGLVQPGRSLRLSCATSGFTFDNYAMYWVRQAPGKGLEWVSGISWNSGDIGYADSVKGRFTISRDNAKNSLYLQMNSLRAEDTALYYCARDAGFGEFHYGLDVWGQGTTVTVSS
VL: B4 VL with T32A, A43V, Y96W, L104V
